Data: patent publication EP4748847A1, “PEPTIDE COMPLEX HAVING VEGFR -2 AGONIST ACTIVITY” (Peptidream Inc, priority 2023, dated 2025)
Where two headings read alike, the source gives them in different places. Blank lines part the entries; values can stand above or below the binder they belong to. *1 amine or outer side, *2 acyl side, *3 side chain or, on linkers, in order; H or OH if unused. Bridges are numbered along the chain shown (N, C = ends). Primed or numbered codes have the meaning given here. Where no end group is shown, it is not given here. [ ]: non-standard residue; d: D form. CO(CH2)2(OCH2CH2)17CO = O=C(CCOCCOCCOCCOCCOCCOCCOCCOCCOCCOCCOCCOCCOCCOCCOCCOCCOCCC(=O)[*:2])[*:1]; Met(O2) = CS(=O)(=O)CC[C@H](N)C(=O)O; hTyr = N[C@@H](CCc1ccc(O)cc1)C(=O)O; Hyp = O=C(O)[C@@H]1C[C@@H](O)CN1; hArg = N=C(N)NCCCC[C@H](N)C(=O)O; hPhe = N[C@@H](CCc1ccccc1)C(=O)O; Tle = CC(C)(C)[C@H](N)C(=O)O; 3Py6NH2 = not defined here; 4Py2NH2 = not defined here; F4aao = not defined here; Ahp′ = not defined here; H4Py = not defined here; Yph = not defined here

Tests used:
[1] = target: T1, VEGFR-2 (human, UniProt P35968 20-1356); assay: cell-based or functional assay
[2] = target: T1, VEGFR-2; assay: cell-based or functional assay; remark: listed apart in the source

T1 sequence (P35968 20-1356): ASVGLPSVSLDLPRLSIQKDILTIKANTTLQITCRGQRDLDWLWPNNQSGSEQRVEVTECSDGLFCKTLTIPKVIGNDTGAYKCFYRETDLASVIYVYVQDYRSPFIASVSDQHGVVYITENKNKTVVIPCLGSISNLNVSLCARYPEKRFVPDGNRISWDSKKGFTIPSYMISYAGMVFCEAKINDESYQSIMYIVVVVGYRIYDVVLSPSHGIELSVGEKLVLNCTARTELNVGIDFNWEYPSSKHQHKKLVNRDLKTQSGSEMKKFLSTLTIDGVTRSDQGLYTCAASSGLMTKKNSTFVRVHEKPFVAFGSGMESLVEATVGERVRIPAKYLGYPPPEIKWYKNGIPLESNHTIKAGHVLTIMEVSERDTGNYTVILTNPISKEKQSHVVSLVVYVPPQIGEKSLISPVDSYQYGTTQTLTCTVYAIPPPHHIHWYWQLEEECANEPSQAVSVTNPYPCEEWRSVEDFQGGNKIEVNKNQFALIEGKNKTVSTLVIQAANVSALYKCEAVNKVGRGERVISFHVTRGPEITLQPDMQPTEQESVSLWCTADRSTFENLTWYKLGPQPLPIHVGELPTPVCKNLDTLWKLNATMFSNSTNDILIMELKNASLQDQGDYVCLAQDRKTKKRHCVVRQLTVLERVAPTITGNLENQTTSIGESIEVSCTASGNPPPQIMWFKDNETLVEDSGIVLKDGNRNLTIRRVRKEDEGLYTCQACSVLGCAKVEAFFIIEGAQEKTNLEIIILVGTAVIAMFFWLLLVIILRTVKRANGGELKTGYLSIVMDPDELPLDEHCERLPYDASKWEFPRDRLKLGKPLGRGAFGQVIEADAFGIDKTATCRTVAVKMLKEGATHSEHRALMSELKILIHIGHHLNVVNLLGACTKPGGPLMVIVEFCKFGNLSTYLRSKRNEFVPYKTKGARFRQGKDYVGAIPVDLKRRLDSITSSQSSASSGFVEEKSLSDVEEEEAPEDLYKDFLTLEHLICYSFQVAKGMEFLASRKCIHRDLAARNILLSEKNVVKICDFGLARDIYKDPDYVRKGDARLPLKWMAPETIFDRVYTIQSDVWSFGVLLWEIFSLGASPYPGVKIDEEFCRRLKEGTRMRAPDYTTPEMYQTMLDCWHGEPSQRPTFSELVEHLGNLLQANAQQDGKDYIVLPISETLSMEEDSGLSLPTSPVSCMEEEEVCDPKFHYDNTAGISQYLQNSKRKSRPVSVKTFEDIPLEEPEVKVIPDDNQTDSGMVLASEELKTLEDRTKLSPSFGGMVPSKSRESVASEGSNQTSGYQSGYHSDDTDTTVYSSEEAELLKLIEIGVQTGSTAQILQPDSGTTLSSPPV

- pERK Assay Results (AlphaLISA p-Erk1/2, HUVEC) [1]: ≥ 50 % activity at 100 nM
B1: Peptide complex Dimer Structure No. 37 (peptide)
peptide: {CH2CO}-WWVDVKGVNYF[hTyr]DCG-NH2
modifications: thioether N-14; also: homodimer: Lys6 joined to Lys6 of second copy by OCOPEG13OCO (Linker Structure No. 5)

- pERK Assay Results (AlphaLISA p-Erk1/2, HUVEC) [1]: ≥ 50 % activity at 10 nM
B2: Peptide complex Dimer Structure No. 32 (peptide)
peptide: {CH2CO}-WW[Tle]DVK(CO(CH2)2(OCH2CH2)17CO)DDLYF[H4Py]DCG-NH2
modifications: thioether N-14; reading uncertain; also: dimer joined at Lys6 side chains by cPEG17c

- pERK Assay Results (AlphaLISA p-Erk1/2, HUVEC) [1]: ≥ 50 % activity at 10 nM
B6: Peptide complex Dimer Structure No. 35 (peptide)
peptide: {CH2CO}-WW[Tle]DVKDDLYF[hTyr][F4aao]CG-NH2
modifications: thioether N-14; reading uncertain; also: homodimer: Lys6 joined to Lys6 of second copy by cPEG17c (Linker Structure No. 4)

- pERK Assay Results (AlphaLISA p-Erk1/2, HUVEC) [1]: ≥ 50 % activity at 10 nM
B10: Peptide complex Dimer Structure No. 34 (peptide)
peptide: {CH2CO}-WW[Tle]DVKDDLYF[hTyr]FCG-NH2
modifications: thioether N-14; also: homodimer: Lys6 joined to Lys6 of second copy by cPEG17c (Linker Structure No. 4)

- pERK Assay Results (AlphaLISA p-Erk1/2, HUVEC) [1]: ≥ 50 % activity at 10 nM
B12: Peptide complex Dimer Structure No. 40 (peptide)
peptide: {CH2CO}-WW[hTyr]DVKDDLY[F4G]VDCG-NH2
modifications: thioether N-14; also: homodimer: Lys6 joined to Lys6 of second copy by OCOPEG13OCO (Linker Structure No. 5)

- pERK Assay Results (AlphaLISA p-Erk1/2, HUVEC) [1]: ≥ 50 % activity at 100 nM
B13: Peptide complex Dimer Structure No. 39 (peptide)
peptide: {CH2CO}-WWVDVKDDLY[Yph]V[hArg]CG-NH2
modifications: thioether N-14; reading uncertain; also: homodimer: Lys6 joined to Lys6 of second copy by OCOPEG13OCO (Linker Structure No. 5)

- pERK Assay Results (AlphaLISA p-Erk1/2, HUVEC) [1]: ≥ 50 % activity at 100 nM
B16: Peptide complex Dimer Structure No. 38 (peptide)
peptide: {CH2CO}-WWV[Met(O2)]VKDDLYF[hTyr]DCG-NH2
modifications: thioether N-14; also: homodimer: Lys6 joined to Lys6 of second copy by OCOPEG13OCO (Linker Structure No. 5)

- pERK Assay Results (AlphaLISA p-Erk1/2, HUVEC) [2]: ≥ 50 % activity at 10 nM
B20: Peptide complex Dimer Structure No. 22 (peptide)
peptide: {CH2CO}-[4Py2NH2]W[Tle]DVKDDLYF[hTyr]DCG-NH2
modifications: thioether N-14; not fully specified (residue 6); reading uncertain; also: homodimer: Lys6 joined to Lys6 of second copy by cPEG17c (Linker Structure No. 4)

- pERK Assay Results (AlphaLISA p-Erk1/2, HUVEC) [1]: ≥ 50 % activity at 100 nM
B21: Peptide complex Dimer Structure No. 36 (peptide)
peptide: {CH2CO}-WW[Tle]DV[Ahp′]DDLYF[hTyr]DCG
modifications: thioether N-14; not fully specified (C-terminus); reading uncertain; also: dimer: Gly15 C-terminus joined to second copy by PEG12c-K-PEG12c (Linker Structure No. 1)

- pERK Assay Results (AlphaLISA p-Erk1/2, HUVEC) [2]: ≥ 50 % activity at 10 nM
B24: Peptide complex Dimer Structure No. 24 (peptide)
peptide: {CH2CO}-[F4aao]W[Tle]DVKDDLYF[hTyr]DCG-NH2
modifications: thioether N-14; not fully specified (residue 6); reading uncertain; also: homodimer: Lys6 joined to Lys6 of second copy by cPEG17c (Linker Structure No. 4)

- pERK Assay Results (AlphaLISA p-Erk1/2, HUVEC) [2]: ≥ 50 % activity at 10 nM
B27: Peptide complex Dimer Structure No. 23 (peptide)
peptide: {CH2CO}-[3Py6NH2]W[Tle]DVKDDLYF[hTyr]DCG-NH2
modifications: thioether N-14; not fully specified (residue 6); reading uncertain; also: homodimer: Lys6 joined to Lys6 of second copy by cPEG17c (Linker Structure No. 4)

- pERK Assay Results (AlphaLISA p-Erk1/2, HUVEC) [1]: ≥ 50 % activity at 10 nM
B28: Peptide complex Dimer Structure No. 41 (peptide)
peptide: {CH2CO}-WWVDVKDDLY[F4G][hTyr][Hyp]CG-NH2
modifications: thioether N-14; also: homodimer: Lys6 joined to Lys6 of second copy by OCOPEG13OCO (Linker Structure No. 5)

Further lines, the binder ahead of its results:

B3: Peptide complex Dimer Structure No. 8 (peptide)
peptide: {CH2CO}-WWVDVQDDLY[Bph]VDCG
modifications: thioether N-14; also: dimer: C-termini joined by PEG12c-K-PEG12c linker
- pERK Assay Results (AlphaLISA p-Erk1/2, HUVEC) [2]: < 50 % activity at 100 nM

B4: Peptide complex Dimer Structure No. 10 (peptide)
peptide: {CH2CO}-WWVDVQDDLYFVACG
modifications: thioether N-14; also: dimer: Gly15 C-terminus joined to second copy by PEG12c-K-PEG12c
- pERK Assay Results (AlphaLISA p-Erk1/2, HUVEC) [2]: < 50 % activity at 100 nM

B5: Peptide complex Dimer Structure No. 11 (peptide)
peptide: {CH2CO}-WWVDVQDDLYFVSCG
modifications: thioether N-14; also: dimer: Gly15 C-terminus joined to second copy by PEG12c-K-PEG12c
- pERK Assay Results (AlphaLISA p-Erk1/2, HUVEC) [2]: < 50 % activity at 100 nM

B7: Peptide complex Dimer Structure No. 18 (peptide)
peptide: {CH2CO}-WWVDVKDDLYF[hTyr]DCG-NH2
modifications: thioether N-14; not fully specified (residue 6); also: homodimer: Lys6 joined to Lys6 of second copy by cPEG17c (Linker Structure No. 4)
- pERK Assay Results (AlphaLISA p-Erk1/2, HUVEC) [2]: ≥ 50 % activity at 100 nM

B8: Peptide complex Dimer Structure No. 19 (peptide)
peptide: {CH2CO}-WW[Tle]DVKDDLY[Yph]VDCG-NH2
modifications: thioether N-14; not fully specified (residue 6); reading uncertain; also: homodimer: Lys6 joined to Lys6 of second copy by cPEG17c (Linker Structure No. 4)
- pERK Assay Results (AlphaLISA p-Erk1/2, HUVEC) [2]: ≥ 50 % activity at 100 nM

B9: Peptide complex Dimer Structure No. 21 (peptide)
peptide: {CH2CO}-[Hcit]W[Tle]DVKDDLYF[hTyr]DCG-NH2
modifications: thioether N-14; not fully specified (residue 6); also: homodimer: Lys6 joined to Lys6 of second copy by cPEG17c (Linker Structure No. 4)
- pERK Assay Results (AlphaLISA p-Erk1/2, HUVEC) [2]: ≥ 50 % activity at 10 nM

B11: Peptide complex Dimer Structure No. 3 (peptide)
peptide: {CH2CO}-WWVDVWDDLYFVDCG
modifications: thioether N-14; also: dimer joined at Gly15 C-termini by PEG12c-K-PEG12c
- pERK Assay Results (AlphaLISA p-Erk1/2, HUVEC) [2]: ≥ 50 % activity at 10 nM

B14: Peptide complex Dimer Structure No. 17 (peptide)
peptide: {CH2CO}-WWVDVKDDLY[F4G]VDCG-NH2
modifications: thioether N-14; not fully specified (residue 6); also: homodimer: Lys6 joined to Lys6 of second copy by cPEG17c (Linker Structure No. 4)
- pERK Assay Results (AlphaLISA p-Erk1/2, HUVEC) [2]: ≥ 50 % activity at 100 nM

B15: Peptide complex Dimer Structure No. 9 (peptide)
peptide: {CH2CO}-WWVDVQDDLYF[hPhe]DCG
modifications: thioether N-14; also: dimer: C-termini joined by PEG12c-K-PEG12c linker
- pERK Assay Results (AlphaLISA p-Erk1/2, HUVEC) [2]: < 50 % activity at 100 nM

B17: Peptide complex Dimer Structure No. 15 (peptide)
peptide: {CH2CO}-WWVD[Tle]KDDLYFVDCG-NH2
modifications: thioether N-14; not fully specified (residue 6); also: homodimer: Lys6 joined to Lys6 of second copy by cPEG17c (Linker Structure No. 4)
- pERK Assay Results (AlphaLISA p-Erk1/2, HUVEC) [2]: ≥ 50 % activity at 100 nM

B18: Peptide complex Dimer Structure No. 6 (peptide)
peptide: {CH2CO}-WWVDV[F4COO]DDLYFVDCG
modifications: thioether N-14; also: dimer: C-termini joined by PEG12c-K-PEG12c linker
- pERK Assay Results (AlphaLISA p-Erk1/2, HUVEC) [2]: ≥ 50 % activity at 100 nM

B19: Peptide complex Dimer Structure No. 20 (peptide)
peptide: {CH2CO}-WW[Tle]DVKDDLY[Yph][hTyr]DCG-NH2
modifications: thioether N-14; not fully specified (residue 6); reading uncertain; also: homodimer: Lys6 joined to Lys6 of second copy by cPEG17c (Linker Structure No. 4)
- pERK Assay Results (AlphaLISA p-Erk1/2, HUVEC) [2]: ≥ 50 % activity at 10 nM

B22: Peptide complex Dimer Structure No. 4 (peptide)
peptide: {CH2CO}-WWVDV[hPhe]DDLYFVDCG
modifications: thioether N-14; also: dimer: C-terminus joined to second copy by PEG12c-K-PEG12c
- pERK Assay Results (AlphaLISA p-Erk1/2, HUVEC) [2]: ≥ 50 % activity at 10 nM

B23: Peptide complex Dimer Structure No. 16 (peptide)
peptide: {CH2CO}-WWVDVKDDLY[Yph]VDCG-NH2
modifications: thioether N-14; not fully specified (residue 6); reading uncertain; also: homodimer: Lys6 joined to Lys6 of second copy by cPEG17c (Linker Structure No. 4)
- pERK Assay Results (AlphaLISA p-Erk1/2, HUVEC) [2]: ≥ 50 % activity at 100 nM

B25: Peptide complex Dimer Structure No. 12 (peptide)
peptide: {CH2CO}-WWVDVQDDLYFVDCG
modifications: thioether N-14; also: dimer: Gly15 C-terminus joined to second copy by K-cPEG17c-K
- pERK Assay Results (AlphaLISA p-Erk1/2, HUVEC) [2]: < 50 % activity at 100 nM

B26: Peptide complex Dimer Structure No. 7 (peptide)
peptide: {CH2CO}-WWVDVQGDLYFVDCG
modifications: thioether N-14; also: dimer: C-termini joined by PEG12c-K-PEG12c linker
- pERK Assay Results (AlphaLISA p-Erk1/2, HUVEC) [2]: ≥ 50 % activity at 100 nM
